# Test results reported in patent US20110105394A1 (Novo Nordisk, published 2011).
# *1 amine or outer side, *2 acyl side, *3 side chain or, on linkers, in order; H or OH if unused. Bridges are numbered along the chain shown (N, C = ends). Where no end group is shown, it is not given here. The star is where a group is joined. C20 diacid = O=C(O)CCCCCCCCCCCCCCCCCCC(=O)*; γGlu = O=C(O)[C@H](CCC(=O)[*:2])N[*:1]; AEEA = NCCOCCOCC(=O)O
# Biological target: T1, Amylin 3(a) receptor (human calcitonin receptor (CTa) with RAMP-3) (human, UniProt P30988 25-474; O60896 24-148, limits assumed)
# T1 sequence (looked up) 1: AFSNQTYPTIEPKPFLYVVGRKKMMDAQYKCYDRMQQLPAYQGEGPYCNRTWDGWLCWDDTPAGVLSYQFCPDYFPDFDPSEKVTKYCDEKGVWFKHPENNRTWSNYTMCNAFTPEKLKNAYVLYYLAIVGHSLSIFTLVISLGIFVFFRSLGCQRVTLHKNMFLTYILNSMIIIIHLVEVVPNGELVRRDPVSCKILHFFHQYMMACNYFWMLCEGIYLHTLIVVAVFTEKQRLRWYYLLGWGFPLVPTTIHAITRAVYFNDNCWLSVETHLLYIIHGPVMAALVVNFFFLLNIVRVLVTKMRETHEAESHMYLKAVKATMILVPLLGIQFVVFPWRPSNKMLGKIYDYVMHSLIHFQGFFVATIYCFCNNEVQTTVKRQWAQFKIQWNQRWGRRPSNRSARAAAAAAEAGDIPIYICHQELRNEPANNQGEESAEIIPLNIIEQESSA
# T1 sequence (looked up) 2: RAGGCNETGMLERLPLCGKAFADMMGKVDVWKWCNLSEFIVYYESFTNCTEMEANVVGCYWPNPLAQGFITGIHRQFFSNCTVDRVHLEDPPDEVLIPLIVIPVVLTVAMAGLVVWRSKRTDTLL
# Test: cell-based or functional assay
row,Binder,Potency Luciferase [pmol/L]
1,{C20 diacid-γGlu}-CNTATCATQRLANFLHHSSNNFGPILPPTNVGSNTY-NH2 (disulfide 1-6) [N-alpha-[(S)-4-Carboxy-4-(19-carboxynonadecanoylamino)butyryl]-[His17]-pramlintide (2-37)],100
2,{C20 diacid-γGlu-AEEA}-HHRCNTATCATQRLANFLHHSSNNFGPILPPTNVGSNTY-NH2 (disulfide 4-9; SMILES CC[C@H](C)[C@H](NC(=O)[C@@H]1CCCN1C(=O)CNC(=O)[C@H](Cc1ccccc1)NC(=O)[C@H](CC(N)=O)NC(=O)[C@H](CC(N)=O)NC(=O)[C@H](CO)NC(=O)[C@H](CO)NC(=O)[C@H](Cc1c[nH]cn1)NC(=O)[C@H](Cc1c[nH]cn1)NC(=O)[C@H](CC(C)C)NC(=O)[C@H](Cc1ccccc1)NC(=O)[C@H](CC(N)=O)NC(=O)[C@H](C)NC(=O)[C@H](CC(C)C)NC(=O)[C@H](CCCNC(=N)N)NC(=O)[C@H](CCC(N)=O)NC(=O)[C@@H](NC(=O)[C@H](C)NC(=O)[C@@H]1CSSC[C@H](NC(=O)[C@H](CCCNC(=N)N)NC(=O)[C@H](Cc2c[nH]cn2)NC(=O)[C@H](Cc2c[nH]cn2)NC(=O)COCCOCCNC(=O)CC[C@H](NC(=O)CCCCCCCCCCCCCCCCCCC(=O)O)C(=O)O)C(=O)N[C@@H](CC(N)=O)C(=O)N[C@@H]([C@@H](C)O)C(=O)N[C@@H](C)C(=O)N[C@@H]([C@@H](C)O)C(=O)N1)[C@@H](C)O)C(=O)N[C@@H](CC(C)C)C(=O)N1CCC[C@H]1C(=O)N1CCC[C@H]1C(=O)N[C@H](C(=O)N[C@@H](CC(N)=O)C(=O)N[C@H](C(=O)NCC(=O)N[C@@H](CO)C(=O)N[C@@H](CC(N)=O)C(=O)N[C@H](C(=O)N[C@@H](Cc1ccc(O)cc1)C(N)=O)[C@@H](C)O)C(C)C)[C@@H](C)O),90
3,"RCNTATCATQRLANFLHHSSNNFGPILPPTNVGSNTY-NH2 (disulfide 2-7; not fully specified (N-terminus); printed as N-alpha-[3-(2-{2-[2-(2-{2-[2-(2-{2-[(S)-4-Carboxy-4-(17-carboxyheptadecanoylamino) butyrylamino]ethoxy}ethoxy)ethoxy]ethoxy}ethoxy)ethoxy]ethoxy}ethoxy)propionylamino][Arg1,His17]-pramlintide) [N-alpha-[3-(2-{2-[2-(2-{2-[2-(2-{2-[(S)-4-Carboxy-4-(17-carboxyheptadecanoylamino) …]",80
4,"{C20 diacid-γGlu}-CNTATCATQRLANFLHHSSNNFGPILPPTDVGSNTY-NH2 (disulfide 1-6; SMILES CC[C@H](C)[C@H](NC(=O)[C@@H]1CCCN1C(=O)CNC(=O)[C@H](Cc1ccccc1)NC(=O)[C@H](CC(N)=O)NC(=O)[C@H](CC(N)=O)NC(=O)[C@H](CO)NC(=O)[C@H](CO)NC(=O)[C@H](Cc1c[nH]cn1)NC(=O)[C@H](Cc1c[nH]cn1)NC(=O)[C@H](CC(C)C)NC(=O)[C@H](Cc1ccccc1)NC(=O)[C@H](CC(N)=O)NC(=O)[C@H](C)NC(=O)[C@H](CC(C)C)NC(=O)[C@H](CCCNC(=N)N)NC(=O)[C@H](CCC(N)=O)NC(=O)[C@@H](NC(=O)[C@H](C)NC(=O)[C@@H]1CSSC[C@H](NC(=O)CC[C@H](NC(=O)CCCCCCCCCCCCCCCCCCC(=O)O)C(=O)O)C(=O)N[C@@H](CC(N)=O)C(=O)N[C@@H]([C@@H](C)O)C(=O)N[C@@H](C)C(=O)N[C@@H]([C@@H](C)O)C(=O)N1)[C@@H](C)O)C(=O)N[C@@H](CC(C)C)C(=O)N1CCC[C@H]1C(=O)N1CCC[C@H]1C(=O)N[C@H](C(=O)N[C@@H](CC(=O)O)C(=O)N[C@H](C(=O)NCC(=O)N[C@@H](CO)C(=O)N[C@@H](CC(N)=O)C(=O)N[C@H](C(=O)N[C@@H](Cc1ccc(O)cc1)C(N)=O)[C@@H](C)O)C(C)C)[C@@H](C)O) [N-alpha-[(S)-4-Carboxy-4-(19-carboxynonadecanoylamino)butyryl]-[His17,Asp31]-pramlintide (2-37)]",60
5,{C20 diacid-γGlu-AEEA}-HHRCNTATCATQRLANFLHHSSQNFGPILPPTNVGSNTY-NH2 (disulfide 4-9; SMILES CC[C@H](C)[C@H](NC(=O)[C@@H]1CCCN1C(=O)CNC(=O)[C@H](Cc1ccccc1)NC(=O)[C@H](CC(N)=O)NC(=O)[C@H](CCC(N)=O)NC(=O)[C@H](CO)NC(=O)[C@H](CO)NC(=O)[C@H](Cc1c[nH]cn1)NC(=O)[C@H](Cc1c[nH]cn1)NC(=O)[C@H](CC(C)C)NC(=O)[C@H](Cc1ccccc1)NC(=O)[C@H](CC(N)=O)NC(=O)[C@H](C)NC(=O)[C@H](CC(C)C)NC(=O)[C@H](CCCNC(=N)N)NC(=O)[C@H](CCC(N)=O)NC(=O)[C@@H](NC(=O)[C@H](C)NC(=O)[C@@H]1CSSC[C@H](NC(=O)[C@H](CCCNC(=N)N)NC(=O)[C@H](Cc2c[nH]cn2)NC(=O)[C@H](Cc2c[nH]cn2)NC(=O)COCCOCCNC(=O)CC[C@H](NC(=O)CCCCCCCCCCCCCCCCCCC(=O)O)C(=O)O)C(=O)N[C@@H](CC(N)=O)C(=O)N[C@@H]([C@@H](C)O)C(=O)N[C@@H](C)C(=O)N[C@@H]([C@@H](C)O)C(=O)N1)[C@@H](C)O)C(=O)N[C@@H](CC(C)C)C(=O)N1CCC[C@H]1C(=O)N1CCC[C@H]1C(=O)N[C@H](C(=O)N[C@@H](CC(N)=O)C(=O)N[C@H](C(=O)NCC(=O)N[C@@H](CO)C(=O)N[C@@H](CC(N)=O)C(=O)N[C@H](C(=O)N[C@@H](Cc1ccc(O)cc1)C(N)=O)[C@@H](C)O)C(C)C)[C@@H](C)O),60
6,"EECNTATCATQRLANFLHHSSNNFGPILPPTNVGSNTY-NH2 (disulfide 3-8; not fully specified (N-terminus); printed as N-alpha-[(S)-4-Carboxy-4-(19-carboxynonadecanoylamino)butyryl]-Glu-[Glu1,His17]-pramlintide) [N-alpha-[(S)-4-Carboxy-4-(19-carboxynonadecanoylamino)butyryl]-Glu-[Glu1,His17]-pramlintide]",300
7,{C20 diacid-γGlu-AEEA}-HHRCNTATCATQRLANFLRHSSNNFGPILPPTNVGSNTY-NH2 (disulfide 4-9; SMILES CC[C@H](C)[C@H](NC(=O)[C@@H]1CCCN1C(=O)CNC(=O)[C@H](Cc1ccccc1)NC(=O)[C@H](CC(N)=O)NC(=O)[C@H](CC(N)=O)NC(=O)[C@H](CO)NC(=O)[C@H](CO)NC(=O)[C@H](Cc1c[nH]cn1)NC(=O)[C@H](CCCNC(=N)N)NC(=O)[C@H](CC(C)C)NC(=O)[C@H](Cc1ccccc1)NC(=O)[C@H](CC(N)=O)NC(=O)[C@H](C)NC(=O)[C@H](CC(C)C)NC(=O)[C@H](CCCNC(=N)N)NC(=O)[C@H](CCC(N)=O)NC(=O)[C@@H](NC(=O)[C@H](C)NC(=O)[C@@H]1CSSC[C@H](NC(=O)[C@H](CCCNC(=N)N)NC(=O)[C@H](Cc2c[nH]cn2)NC(=O)[C@H](Cc2c[nH]cn2)NC(=O)COCCOCCNC(=O)CC[C@H](NC(=O)CCCCCCCCCCCCCCCCCCC(=O)O)C(=O)O)C(=O)N[C@@H](CC(N)=O)C(=O)N[C@@H]([C@@H](C)O)C(=O)N[C@@H](C)C(=O)N[C@@H]([C@@H](C)O)C(=O)N1)[C@@H](C)O)C(=O)N[C@@H](CC(C)C)C(=O)N1CCC[C@H]1C(=O)N1CCC[C@H]1C(=O)N[C@H](C(=O)N[C@@H](CC(N)=O)C(=O)N[C@H](C(=O)NCC(=O)N[C@@H](CO)C(=O)N[C@@H](CC(N)=O)C(=O)N[C@H](C(=O)N[C@@H](Cc1ccc(O)cc1)C(N)=O)[C@@H](C)O)C(C)C)[C@@H](C)O),300
8,"{C20 diacid-γGlu}-ECNTATCATQRLANFLHHSSNNFGPILPPTNVGSNTY-NH2 (disulfide 2-7; SMILES CC[C@H](C)[C@H](NC(=O)[C@@H]1CCCN1C(=O)CNC(=O)[C@H](Cc1ccccc1)NC(=O)[C@H](CC(N)=O)NC(=O)[C@H](CC(N)=O)NC(=O)[C@H](CO)NC(=O)[C@H](CO)NC(=O)[C@H](Cc1c[nH]cn1)NC(=O)[C@H](Cc1c[nH]cn1)NC(=O)[C@H](CC(C)C)NC(=O)[C@H](Cc1ccccc1)NC(=O)[C@H](CC(N)=O)NC(=O)[C@H](C)NC(=O)[C@H](CC(C)C)NC(=O)[C@H](CCCNC(=N)N)NC(=O)[C@H](CCC(N)=O)NC(=O)[C@@H](NC(=O)[C@H](C)NC(=O)[C@@H]1CSSC[C@H](NC(=O)[C@H](CCC(=O)O)NC(=O)CC[C@H](NC(=O)CCCCCCCCCCCCCCCCCCC(=O)O)C(=O)O)C(=O)N[C@@H](CC(N)=O)C(=O)N[C@@H]([C@@H](C)O)C(=O)N[C@@H](C)C(=O)N[C@@H]([C@@H](C)O)C(=O)N1)[C@@H](C)O)C(=O)N[C@@H](CC(C)C)C(=O)N1CCC[C@H]1C(=O)N1CCC[C@H]1C(=O)N[C@H](C(=O)N[C@@H](CC(N)=O)C(=O)N[C@H](C(=O)NCC(=O)N[C@@H](CO)C(=O)N[C@@H](CC(N)=O)C(=O)N[C@H](C(=O)N[C@@H](Cc1ccc(O)cc1)C(N)=O)[C@@H](C)O)C(C)C)[C@@H](C)O) [N-alpha-[(S)-4-Carboxy-4-(19-carboxynonadecanoylamino)butyryl]-[Glu 1,His17]-pramlintide]",200
